Our source for the EC50, STAT3 phosphorylation in Baf3/KZ134/huIL-23R/huIL-12Rβ1 Clone 6 cells (ZymoGenetics IL-23) and EC50, STAT3 phosphorylation in Baf3/KZ134/huIL-23R/huIL-12Rβ1 Clone 6 cells (eBioscience IL-23) values is patent WO2009082624A2.

In this test the target is human IL-23 receptor (huIL-23R/huIL-12Rβ1) on Baf3/KZ134/huIL-23R/huIL-12Rβ1 Clone 6 cells (human) (UniProt P42701). The experiment in a line: cell-based or functional assay.
human IL-23 receptor (huIL-23R/huIL-12Rβ1) on Baf3/KZ134/huIL-23R/huIL-12Rβ1 Clone 6 cells (human), sequence (chain, as listed by the source, chain 1 of 2, other chains not shown): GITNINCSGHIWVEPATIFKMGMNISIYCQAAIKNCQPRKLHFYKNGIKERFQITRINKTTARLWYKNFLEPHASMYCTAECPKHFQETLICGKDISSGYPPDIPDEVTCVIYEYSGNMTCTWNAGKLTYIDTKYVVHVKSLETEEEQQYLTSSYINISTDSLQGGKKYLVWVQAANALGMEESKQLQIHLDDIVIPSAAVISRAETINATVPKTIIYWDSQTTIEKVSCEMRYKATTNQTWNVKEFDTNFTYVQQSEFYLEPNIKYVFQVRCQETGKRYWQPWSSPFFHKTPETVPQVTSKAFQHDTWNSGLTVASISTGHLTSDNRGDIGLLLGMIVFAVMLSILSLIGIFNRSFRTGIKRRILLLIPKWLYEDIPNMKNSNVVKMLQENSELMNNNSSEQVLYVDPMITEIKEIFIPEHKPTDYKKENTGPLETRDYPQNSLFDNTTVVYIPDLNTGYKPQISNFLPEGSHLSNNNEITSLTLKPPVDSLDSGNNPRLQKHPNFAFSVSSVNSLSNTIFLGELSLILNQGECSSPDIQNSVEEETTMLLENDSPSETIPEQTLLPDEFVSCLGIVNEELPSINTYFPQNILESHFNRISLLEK

“human IL-23 (p19/p40 heterodimer), recombinant (from UniProt Q9NPF7 20-189; P29460 23-328) (ligand)” came in with an EC50, STAT3 phosphorylation in Baf3/KZ134/huIL-23R/huIL-12Rβ1 Clone 6 cells (ZymoGenetics IL-23) of 20 pM and an EC50, STAT3 phosphorylation in Baf3/KZ134/huIL-23R/huIL-12Rβ1 Clone 6 cells (eBioscience IL-23) of 30 pM.
